From patent publication US20170029894A1 (Novartis, published 2017)
One block for each molecule: values may come before it.

Columns and labels:
Experiment in all cases: peptide array of 15-mer IL-13 peptides
[1] = target: IL-13 peptide 1 (…) (human)
[2] = target: IL-13 peptide 19 (…) (human)
[3] = target: IL-13 peptide 29 (…) (human)
[4] = target: IL-13 peptide 16 (…) (human)
[5] = target: IL-13 peptide 12 (…) (human)
[6] = target: IL-13 peptide 15 (…) (human)
[7] = target: IL-13 peptide 13 (…) (human)
[8] = target: IL-13 peptide 25 (…) (human)
[9] = target: IL-13 peptide 14 (…) (human)
[10] = target: IL-13 peptide 28 (…) (human)
[11] = target: IL-13 peptide 17 (…) (human)
[12] = target: IL-13 peptide 10 (…) (human)
[13] = target: IL-13 peptide 3 (…) (human)
[14] = target: IL-13 peptide 22 (…) (human)
[15] = target: IL-13 peptide 21 (…) (human)
[16] = target: IL-13 peptide 20 (…) (human)
[17] = target: IL-13 peptide 26 (…) (human)
[18] = target: IL-13 peptide 23 (…) (human)
[19] = target: IL-13 peptide 27 (…) (human)
[20] = target: IL-13 peptide 18 (…) (human)
[21] = target: IL-13 peptide 24 (…) (human)
[22] = target: IL-13 peptide 30 (…) (human)
[23] = target: IL-13 peptide 2 (…) (human)
[24] = target: IL-13 peptide 11 (…) (human)
[25] = target: T1, IL-13 peptide 8 (TQNQKAPLCNGSMVW) (human)
T1 peptide: TQNQKAPLCNGSMVW
Experimental: (§1) The sequence of IL-13 was probed at the peptide level to identify the binding site with ANTIBODY 01951/G12. Thirty four 15-mer peptides were synthesized in order to scan the entire sequence with 12 residue overlap starting from the N-terminus. The synthesis of the peptides, preparation of the peptide-array slides, incubation with antibodies and data analysis where done as described by Maksimov et al. (PLoS ONE 7(3): e34212).
(§2) The binding signal intensity (light unit) observed is reported for each peptide, in column 1 against a control unrelated human antibody and in column 2 against ANTIBODY 01951/G12. Signals above 10000 Light Units are considered as being significant. 2 overlapping peptides in the set of the 34 peptides produced a signal above that threshold, peptide 22 ([…]) (SEQ ID NO: 31) and peptide 23 ([…]) (SEQ ID NO: 32). The overlapping sequence between both peptides is […] (SEQ ID NO: 33).

[26] = target: T2, IL-13 peptide 16 (CAALESLINVSGCSA) (human)
T2 peptide: CAALESLINVSGCSA
Experimental: as §1, §2

[27] = target: T3, IL-13 peptide 2 (PVPPSTALRELIEEL) (human)
T3 peptide: PVPPSTALRELIEEL
Experimental: as §1, §2

[28] = target: T4, IL-13 peptide 32 (AQFVKDLLLHLKKLF) (human)
T4 peptide: AQFVKDLLLHLKKLF
Experimental: as §1, §2

[29] = target: T5, IL-13 peptide 9 (QKAPLCNGSMVWSIN) (human)
T5 peptide: QKAPLCNGSMVWSIN
Experimental: as §1, §2

[30] = target: T6, IL-13 peptide 4 (ALRELIEELVNITQN) (human)
T6 peptide: ALRELIEELVNITQN
Experimental: as §1, §2

[31] = target: T7, IL-13 peptide 34 (LLLHLKKLFREGRFN) (human)
T7 peptide: LLLHLKKLFREGRFN
Experimental: as §1, §2

[32] = target: T8, IL-13 peptide 30 (DTKIEVAQFVKDLLL) (human)
T8 peptide: DTKIEVAQFVKDLLL
Experimental: as §1, §2

[33] = target: T9, IL-13 peptide 18 (LINVSGCSAIEKTQR) (human)
T9 peptide: LINVSGCSAIEKTQR
Experimental: as §1, §2

[34] = target: T10, IL-13 peptide 17 (LESLINVSGCSAIEK) (human)
T10 peptide: LESLINVSGCSAIEK
Experimental: as §1, §2

[35] = target: T11, IL-13 peptide 6 (EELVNITQNQKAPLC) (human)
T11 peptide: EELVNITQNQKAPLC
Experimental: as §1, §2

[36] = target: T12, IL-13 peptide 27 (GQFSSLHVRDTKIEV) (human)
T12 peptide: GQFSSLHVRDTKIEV
Experimental: as §1, §2

[37] = target: T13, IL-13 peptide 1 (SPGPVPPSTALRELI) (human)
T13 peptide: SPGPVPPSTALRELI
Experimental: as §1, §2

[38] = target: T14, IL-13 peptide 15 (GMYCAALESLINVSG) (human)
T14 peptide: GMYCAALESLINVSG
Experimental: as §1, §2

[39] = target: T15, IL-13 peptide 11 (NGSMVWSINLTAGMY) (human)
T15 peptide: NGSMVWSINLTAGMY
Experimental: as §1, §2

[40] = target: T16, IL-13 peptide 13 (SINLTAGMYCAALES) (human)
T16 peptide: SINLTAGMYCAALES
Experimental: as §1, §2

[41] = target: T17, IL-13 peptide 7 (VNITQNQKAPLCNGS) (human)
T17 peptide: VNITQNQKAPLCNGS
Experimental: as §1, §2

[42] = target: T18, IL-13 peptide 19 (VSGCSAIEKTQRMLS) (human)
T18 peptide: VSGCSAIEKTQRMLS
Experimental: as §1, §2

[43] = target: T19, IL-13 peptide 3 (PSTALRELIEELVNI) (human)
T19 peptide: PSTALRELIEELVNI
Experimental: as §1, §2

[44] = target: T20, IL-13 peptide 10 (PLCNGSMVWSINLTA) (human)
T20 peptide: PLCNGSMVWSINLTA
Experimental: as §1, §2

[45] = target: T21, IL-13 peptide 29 (HVRDTKIEVAQFVKD) (human)
T21 peptide: HVRDTKIEVAQFVKD
Experimental: as §1, §2

[46] = target: T22, IL-13 peptide 25 (PHKVSAGQFSSLHVR) (human)
T22 peptide: PHKVSAGQFSSLHVR
Experimental: as §1, §2

[47] = target: T23, IL-13 peptide 23 (MLSGFCPHKVSAGQF) (human)
T23 peptide: MLSGFCPHKVSAGQF
Experimental: as §1, §2

[48] = target: T24, IL-13 peptide 12 (MVWSINLTAGMYCAA) (human)
T24 peptide: MVWSINLTAGMYCAA
Experimental: as §1, §2

[49] = target: T25, IL-13 peptide 21 (IEKTQRMLSGFCPHK) (human)
T25 peptide: IEKTQRMLSGFCPHK
Experimental: as §1, §2

[50] = target: T26, IL-13 peptide 26 (VSAGQFSSLHVRDTK) (human)
T26 peptide: VSAGQFSSLHVRDTK
Experimental: as §1, §2

[51] = target: T27, IL-13 peptide 20 (CSAIEKTQRMLSGFC) (human)
T27 peptide: CSAIEKTQRMLSGFC
Experimental: as §1, §2

[52] = target: T28, IL-13 peptide 31 (IEVAQFVKDLLLHLK) (human)
T28 peptide: IEVAQFVKDLLLHLK
Experimental: as §1, §2

[53] = target: T29, IL-13 peptide 14 (LTAGMYCAALESLIN) (human)
T29 peptide: LTAGMYCAALESLIN
Experimental: as §1, §2

[54] = target: T30, IL-13 peptide 33 (VKDLLLHLKKLFREG) (human)
T30 peptide: VKDLLLHLKKLFREG
Experimental: as §1, §2

[55] = target: T31, IL-13 peptide 22 (TQRMLSGFCPHKVSA) (human)
T31 peptide: TQRMLSGFCPHKVSA
Experimental: as §1, §2

[56] = target: T32, IL-13 peptide 5 (ELIEELVNITQNQKA) (human)
T32 peptide: ELIEELVNITQNQKA
Experimental: as §1, §2

[57] = target: T33, IL-13 peptide 28 (SSLHVRDTKIEVAQF) (human)
T33 peptide: SSLHVRDTKIEVAQF
Experimental: as §1, §2

Corrected Mean signal intensity (Light Unit) [1]: 44.3 Light Unit
Corrected Mean signal intensity (Light Unit) [2]: 15 Light Unit
Corrected Mean signal intensity (Light Unit) [3]: -17 Light Unit
Corrected Mean signal intensity (Light Unit) [4]: 1 Light Unit
Corrected Mean signal intensity (Light Unit) [5]: 19 Light Unit
Corrected Mean signal intensity (Light Unit) [6]: 1 Light Unit
Corrected Mean signal intensity (Light Unit) [7]: -1.5 Light Unit
Corrected Mean signal intensity (Light Unit) [8]: -24.7 Light Unit
Corrected Mean signal intensity (Light Unit) [9]: 1 Light Unit
Corrected Mean signal intensity (Light Unit) [10]: -6 Light Unit
Corrected Mean signal intensity (Light Unit) [11]: 18.7 Light Unit
Corrected Mean signal intensity (Light Unit) [12]: -6.5 Light Unit
Corrected Mean signal intensity (Light Unit) [13]: -7.3 Light Unit
Corrected Mean signal intensity (Light Unit) [14]: 123 Light Unit
Corrected Mean signal intensity (Light Unit) [15]: 101 Light Unit
Corrected Mean signal intensity (Light Unit) [16]: 26 Light Unit
Corrected Mean signal intensity (Light Unit) [17]: 3.7 Light Unit
Corrected Mean signal intensity (Light Unit) [18]: 23 Light Unit
Corrected Mean signal intensity (Light Unit) [19]: -10.5 Light Unit
Corrected Mean signal intensity (Light Unit) [20]: 12.5 Light Unit
Corrected Mean signal intensity (Light Unit) [21]: 3.3 Light Unit
Corrected Mean signal intensity (Light Unit) [22]: -13 Light Unit
Corrected Mean signal intensity (Light Unit) [23]: -9 Light Unit
Corrected Mean signal intensity (Light Unit) [24]: -5 Light Unit
Molecule: control unrelated human antibody

Corrected Mean signal intensity (Light Unit) [21]: 493 Light Unit
Corrected Mean signal intensity (Light Unit) [25]: -350 Light Unit
Corrected Mean signal intensity (Light Unit) [26]: -587 Light Unit
Corrected Mean signal intensity (Light Unit) [27]: -1130 Light Unit
Corrected Mean signal intensity (Light Unit) [28]: -746 Light Unit
Corrected Mean signal intensity (Light Unit) [29]: -518 Light Unit
Corrected Mean signal intensity (Light Unit) [30]: -207 Light Unit
Corrected Mean signal intensity (Light Unit) [31]: 7150 Light Unit
Corrected Mean signal intensity (Light Unit) [32]: -438 Light Unit
Corrected Mean signal intensity (Light Unit) [33]: -539 Light Unit
Corrected Mean signal intensity (Light Unit) [34]: -340 Light Unit
Corrected Mean signal intensity (Light Unit) [35]: 1 Light Unit
binding result [35]: no binding (tested: 10000 Light Units)
Corrected Mean signal intensity (Light Unit) [36]: -291 Light Unit
Corrected Mean signal intensity (Light Unit) [37]: -1070 Light Unit
Corrected Mean signal intensity (Light Unit) [38]: -987 Light Unit
Corrected Mean signal intensity (Light Unit) [39]: -132 Light Unit
Corrected Mean signal intensity (Light Unit) [40]: -757 Light Unit
Corrected Mean signal intensity (Light Unit) [41]: -405 Light Unit
Corrected Mean signal intensity (Light Unit) [42]: -830 Light Unit
Corrected Mean signal intensity (Light Unit) [43]: -210 Light Unit
Corrected Mean signal intensity (Light Unit) [44]: -982 Light Unit
Corrected Mean signal intensity (Light Unit) [45]: -734 Light Unit
Corrected Mean signal intensity (Light Unit) [46]: -386 Light Unit
Corrected Mean signal intensity (Light Unit) [47]: 48100 Light Unit
Corrected Mean signal intensity (Light Unit) [48]: 56.5 Light Unit
binding result [48]: no binding (tested: 10000 Light Units)
Corrected Mean signal intensity (Light Unit) [49]: 2210 Light Unit
Corrected Mean signal intensity (Light Unit) [50]: -778 Light Unit
Corrected Mean signal intensity (Light Unit) [51]: -721 Light Unit
Corrected Mean signal intensity (Light Unit) [52]: -810 Light Unit
Corrected Mean signal intensity (Light Unit) [53]: -99.7 Light Unit
Corrected Mean signal intensity (Light Unit) [54]: -203 Light Unit
Corrected Mean signal intensity (Light Unit) [55]: 38600 Light Unit
Corrected Mean signal intensity (Light Unit) [56]: -131 Light Unit
Corrected Mean signal intensity (Light Unit) [57]: -170 Light Unit
B1: ANTIBODY 01951/G12 (antibody, human IgG1, kappa, V domains shown)
VH: EVQLVESGGGVVQPGRSLRLSCAASGFTFSSYGMHWVRQAPGKGLEWVAIIWYDGSNKYYADSVKGRFTISRDNSKNTLYLQMNSLRAEDTAVYYCARLWFGDLDAFDIWGQGTMVTVSS
VL: EIVLTQSPATLSLSPGERAILSCRAGQSVSSYLVWYQQKPGQAPRLLIYDASNRATGIPARFSGSGSGTDFTLTISSLEPEDFAVYYCQQRSSWPPVYTFGQGTKLEIKR
notes: also called target antibody
